Measured values as given in patent publication US20040216177A1, “Congenic rats containing a mutant GPR10 gene” (OTSUKA PHARMACEUTICAL CO., LTD., priority 2003, published 2004).

Experiments:
[1] = target: cloned human wild-type GPR10 (370 amino acids) (human) (UniProt P49683); assay: displacement of 0.05 nM [125I]PrRP from CHO-hGPR10 cell membranes, 2-site competition model, site 1
[2] = target: cloned human NH2-terminus truncated (mutant) GPR10 (306 amino acids) (human) (UniProt P49683); assay: cell-based or functional assay
[3] = target: cloned human wild-type GPR10 (370 amino acids) (human) (UniProt P49683); assay: cell-based or functional assay
[4] = target: cloned human wild-type GPR10 (370 amino acids) (human) (UniProt P49683); assay: displacement of 0.05 nM [125I]PrRP from CHO-hGPR10 cell membranes, 2-site competition model, site 2
[5] = target: cloned human wild-type GPR10 (370 amino acids) (human) (UniProt P49683); assay: radioligand saturation binding on CHO-hGPR10 cell membranes, at [125I]PrRP concentrations near the KD
[6] = target: cloned human wild-type GPR10 (370 amino acids) (human) (UniProt P49683); assay: radioligand saturation binding on CHO-hGPR10 cell membranes, 2-site model, site 1
[7] = target: cloned human wild-type GPR10 (370 amino acids) (human) (UniProt P49683); assay: radioligand saturation binding on CHO-hGPR10 cell membranes, 2-site model, site 2
[8] = target: cloned human wild-type GPR10 (370 amino acids) (human) (UniProt P49683); assay: saturation radioligand binding on CHO-hGPR10 cell membranes; non-specific binding determined with 1.0 uM unlabelled PrRP
[9] = rats; cited from earlier work
[10] = target: T1, cloned human wild-type GPR10 (Homo sapiens, UniProt P49683); assay: [3H]arachidonic acid release from CHO-hGPR10 cells; type: cell-based
T1 construct: For cloning of human wild-type GPR10 ORF, a DNA fragment was amplified from human genomic DNA; expressed in transfected cells
T1 sequence (P49683 1-370): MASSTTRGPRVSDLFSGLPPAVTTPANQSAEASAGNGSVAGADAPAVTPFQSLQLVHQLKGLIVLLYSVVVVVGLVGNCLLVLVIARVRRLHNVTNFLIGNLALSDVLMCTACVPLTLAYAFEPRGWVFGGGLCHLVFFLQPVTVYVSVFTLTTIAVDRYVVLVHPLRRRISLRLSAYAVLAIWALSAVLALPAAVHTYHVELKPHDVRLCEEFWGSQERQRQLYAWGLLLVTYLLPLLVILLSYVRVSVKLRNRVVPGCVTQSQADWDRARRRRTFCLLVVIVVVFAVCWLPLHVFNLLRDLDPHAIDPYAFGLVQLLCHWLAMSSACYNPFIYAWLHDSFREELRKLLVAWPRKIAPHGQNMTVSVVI
Experimental: CHO cells stably expressing cloned human wild-type GPR10 (CHO-hGPR10 cells) were generated as described in Examples 2-3. CHO-hGPR10 were cultured in F-12 HAM medium supplemented with 2.0 mM L-glutamine, 10% (v/v) dialyzed fetal bovine serum, 1.0% hypoxanthine-thymidine supplement, and 1.0% G-418 selection agent. All of the cells were maintained at 37° C. in an atmosphere of 5% CO2 and passaged when ˜80% confluent using a non-enzymatic cell dissociation buffer (Sigma-Aldrich Corporation). CHO-hGPR10 cells were harvested when ˜70% confluent for use in [^3H]arachidonic acid release assays, which were performed as follows:
CHO-hGPR10 cells were plated at a density of 150,000 cells/well in 12 well tissue culture plates, rinsed 24 hr later with calcium and magnesium free Hank's Balanced Salt Solution (Gibco-BRL), and left to incubate for 4 hr in F-12 culture medium (1.0 ml/well) containing 100 nCi/ml of [^3H]arachidonic acid. The cells were then rinsed and incubated for 5 min in 1.0 ml/well of Hank's Balanced Salt Solution (Invitrogen Corp. CA) containing 20 mM HEPES buffer (Sigma-Aldrich Corp.) and 0.1% (w/v) fatty acid-free bovine serum albumin (Sigma-Aldrich Corp.). After repeating this rinse and incubation procedure 3 times, 1.0 ml of vehicle, PrRP or Compound X was added to each well and plates were left to incubate for 30 min at 37° C. 400 μl of the extracellular liquid present in each well was mixed with 2.6 ml of liquid scintillation cocktail and counted by liquid scintillation counting (1272 Clinigamma, LKB/Wallach) to calculate the total [^3H] radioactivity present in each well. All of the reactions were performed in triplicate, at concentrations in the 0.01 to 10,000 nM range, to determine the effects of PrRP and Compound X on basal [^3H]arachidonic acid release from CHO-hGPR10 cells. […]

[11] = target: T2, cloned human NH2-terminus truncated GPR10 (Homo sapiens, UniProt P49683, L65M); assay: [3H]arachidonic acid release from CHO-T-hGPR10 cells; type: cell-based
T2 construct: expressed in transfected cells
T2 sequence (P49683 65-370 L65M limits assumed): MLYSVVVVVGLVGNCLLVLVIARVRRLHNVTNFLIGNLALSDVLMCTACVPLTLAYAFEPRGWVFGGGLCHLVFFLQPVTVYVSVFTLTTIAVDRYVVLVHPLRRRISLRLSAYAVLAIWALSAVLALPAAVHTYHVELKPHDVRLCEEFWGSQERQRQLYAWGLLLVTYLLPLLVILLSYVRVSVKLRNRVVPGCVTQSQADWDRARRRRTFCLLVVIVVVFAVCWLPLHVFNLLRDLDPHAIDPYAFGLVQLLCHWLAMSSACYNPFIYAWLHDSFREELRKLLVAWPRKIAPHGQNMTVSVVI
Experimental: CHO cells were generated to stably express a cloned truncated form of the human GPR10, as described in Examples 2-3. These CHO-T-hGPR10 cells, which express a truncation of the first 64 amino acids present in the wild-type cloned human GPR10, were cultured in F-12 HAM medium, supplemented with 2.0 mM L-glutamine, 10% (v/v) dialyzed fetal bovine serum, 1.0% hypoxanthine-thymidine supplement and 1.0% G-418 selection agent. All of the cells were maintained at 37° C. in an atmosphere of 5% CO2 and passaged when ˜80% confluent using a non-enzymatic cell dissociation buffer (Sigma-Aldrich Corporation). CHO-T-hGPR10 cells were harvested when ˜70% confluent for use in [^3H]arachidonic acid release assays carried out as described below.
The effects of PrRP and Compound X on basal [^3H]arachidonic acid release from CHO-T-hGPR10 cells was performed using exactly the same assay procedure described in Example 7. PrRP and Compound X were each tested in triplicate at concentrations in the 0.01 to 10,000 nM range.
The mean radioactive counts (±SEM, N=3) detected in each reaction triplicate were calculated, and binding isotherms were analyzed by non-linear regression, using GraphPad Prism version 3.00 for Windows, to estimate the potency (EC50 with 95% confidence interval) and relative intrinsic activity (Emax as % basal release±SEM) of PrRP and Compound X. The results are shown in FIG. 19. […]

[12] = target: T1, cloned human wild-type GPR10; assay: [125I]PrRP competition binding to CHO-hGPR10 cell membranes; conditions: 2-site competition model, site 2, 0.05 nM [125I]PrRP
Experimental: Next, PrRP and compound X (molecular weight=318.38) were studied in quadruplicate at nanomolar to micromolar concentrations (PrRP at 0.01, 0.1, 0.5, 1, 5, 10, 50 and 100 nM; Compound X at 100, 300, 1000, 3000 and 10,000 nM) to determine their respective displacement of [^125I]PrRP (Amersham Biosciences UK Limited; catalog #IM341, Specific Activity=2000 Ci/mmol) binding to CHO-hGPR10 cell membranes. Membranes (20 μg protein) were incubated with 0.05 nM [^125I]PrRP, Compound X or vehicle, and buffer comprising 20 mM Tris (pH 7.4), 2.0 mM EGTA, 5.0 mM C4H6MgO4, 0.5 mM phenylmethylsulfonyl fluoride, 1.0 μg/ml pepstatin, 1.0 μl/ml protease inhibitor cocktail, and 0.1% (w/v) BSA. All of the reactions were performed in 96-well Basic Flashplates®, terminated by centrifugation (3,000 g×7 min) after a 90 min incubation at room temperature, and radioactive counts associated with membrane-bound [^125I]PrRP were counted in each well using a Microbeta TriLux microscintillation counter. Non-linear regression analysis of the competition binding data was used to calculate inhibition binding constants (IC50 and Ki), which is the concentration of Compound X that occupies half of the CHO-hGPR10 receptors specifically bound by 0.05 nM [^125I]PrRP. […]

PrRP (prolactin-releasing peptide), unlabelled
IC50 [1]: 0.0007 nM | Ki [1]: 0.0004 nM | [^3H]arachidonic acid release from CHO-T-hGPR10 cells, Emax (as % basal release) [2]: 3.6% | [^3H]arachidonic acid release from CHO-hGPR10 cells, EC50 [3]: 0.043 nM | [^3H]arachidonic acid release from CHO-hGPR10 cells, Emax (as % 1.0 nM PrRP) [3]: 75.3% | [^3H]arachidonic acid release from CHO-hGPR10 cells, Emax (as a % of 1 nM PrRP) [3]: 105% | IC50 [4]: 0.5 nM | Ki [4]: 0.29 nM

[^125I]PrRP (radioiodinated prolactin-releasing peptide)
percent of total binding that was specific [5]: > 80% | Kd [6]: 0.07 nM | Kd [7]: 0.072 nM | EC50 (read off the curve) [8]: 0.07 nM

prolactin-releasing peptide [PrRP]
ACTH [9]: increase | body weight [9]: reduce | food intake [9]: reduce | plasma oxytocin [9]: increase | wakefulness [9]: promote wakefulness | Emax, relative intrinsic activity ([10]; 1.0 μM PrRP alone (Example 9)): 75.3±6.1% | Emax, relative intrinsic activity ([10]; as % of 1 nM PrRP, tested alone): 105.4±6.1% | EC50 ([10]; tested alone): 0.043 nM | Emax, relative intrinsic activity ([11]; 1.0 nM PrRP alone, as % basal release): 3.6±4.4% | activity on basal [3H]arachidonic acid release ([11]; 0.01 to 10,000 nM): inactive | Ki [12]: 0.29 nM | IC50 ([12]; read-out: IC50 (2) displacement of [125I]PrRP): 0.5 nM
